Measurements as given in patent publication US20260008815A1, “CYCLIC PEPTIDE OR SALT THEREOF, AND USES THEREOF” (FUJIFILM Corporation, priority 2023, published 2026).
Bridge positions count the residues as written; N and C are the ends. Ends that are not written are not given here. COCH2 = acetyl group that carries the bridge

The substances below were run against T1, Recombinant Human FGFR2 alpha (IIIc) Fc Chimera Protein (Homo sapiens, UniProt P21802) (assay: ELISA binding affinity of enzymatically synthesized peptide to FGFR). Conditions: ELISA luminescence signal at 10 nmol/L peptide, SEQ ID NO: 47 at 10 nmol/L standardized to 1; enzyme synthesis product.
T1 construct: Fc (chimera); purchased R&D systems 712-FR-050
Outline: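 FGFR2 alpha (IIIc) Fc chimera (5 ng/well) was immobilized, and Myc-tagged peptide was bound 3 h at room temperature, then detected with anti-Myc antibody (2 h) and chemiluminescent substrate. Signal was corrected against FGFR-free wells. Score A–D was the luminescence at 10 nmol/L peptide, normalized to cyclic peptide SEQ ID NO: 47.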

T1 sequence (P21802 with tags, fused parts or gaps limits assumed): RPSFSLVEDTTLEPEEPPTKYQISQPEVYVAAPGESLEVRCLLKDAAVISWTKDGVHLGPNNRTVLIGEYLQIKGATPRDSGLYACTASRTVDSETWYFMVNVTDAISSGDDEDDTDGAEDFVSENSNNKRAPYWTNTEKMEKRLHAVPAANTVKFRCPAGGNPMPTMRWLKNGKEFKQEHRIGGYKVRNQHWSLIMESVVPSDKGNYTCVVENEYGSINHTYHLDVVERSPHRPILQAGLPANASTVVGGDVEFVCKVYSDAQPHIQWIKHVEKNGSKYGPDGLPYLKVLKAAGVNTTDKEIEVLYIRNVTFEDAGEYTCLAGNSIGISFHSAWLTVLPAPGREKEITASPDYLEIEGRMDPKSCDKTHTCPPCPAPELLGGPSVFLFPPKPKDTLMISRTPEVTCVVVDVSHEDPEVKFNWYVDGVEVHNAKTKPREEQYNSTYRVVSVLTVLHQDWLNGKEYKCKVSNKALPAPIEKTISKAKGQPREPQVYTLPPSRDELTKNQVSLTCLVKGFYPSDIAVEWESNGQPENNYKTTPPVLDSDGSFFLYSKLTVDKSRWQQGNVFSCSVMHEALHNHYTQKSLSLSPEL

Row | Evaluation result of binding affinity to FGFR | Substance
1 | A (0.7 or more) | 216 (YCEENYLSPEQYQYFIYFK(COCH2)Y; thioether 2-19 (inferred)) [compound 216]
2 | A (0.7 or more) | 217 (YCEENYLTPEQYQYFIYFK(COCH2)Y; thioether 2-19 (inferred)) [compound 217]
3 | A (0.7 or more) | 218 (YCEENYLEPEQYQYFIYFK(COCH2)Y; thioether 2-19 (inferred)) [compound 218]
4 | C (0.1 or more and less than 0.5) | 219 (YCEENYLRPEQYQYFIYFK(COCH2)Y; thioether 2-19 (inferred)) [compound 219]
5 | A (0.7 or more) | 220 (YCEENYLHPEQYQYFIYFK(COCH2)Y; thioether 2-19 (inferred)) [compound 220]
6 | A (0.7 or more) | 221 (YCEENYLDGEQYQYFIYFK(COCH2)Y; thioether 2-19 (inferred)) [compound 221]
7 | A (0.7 or more) | 222 (YCEENYLDLEQYQYFIYFK(COCH2)Y; thioether 2-19 (inferred)) [compound 222]
8 | A (0.7 or more) | 223 (YCEENYLDIEQYQYFIYFK(COCH2)Y; thioether 2-19 (inferred)) [compound 223]
9 | A (0.7 or more) | 224 (YCEENYLDVEQYQYFIYFK(COCH2)Y; thioether 2-19 (inferred)) [compound 224]
10 | A (0.7 or more) | 225 (YCEENYLDFEQYQYFIYFK(COCH2)Y; thioether 2-19 (inferred)) [compound 225]
11 | A (0.7 or more) | 226 (YCEENYLDYEQYQYFIYFK(COCH2)Y; thioether 2-19 (inferred)) [compound 226]
12 | A (0.7 or more) | 227 (YCEENYLDWEQYQYFIYFK(COCH2)Y; thioether 2-19 (inferred)) [compound 227]
13 | A (0.7 or more) | 228 (YCEENYLDNEQYQYFIYFK(COCH2)Y; thioether 2-19 (inferred)) [compound 228]
14 | A (0.7 or more) | 229 (YCEENYLDQEQYQYFIYFK(COCH2)Y; thioether 2-19 (inferred)) [compound 229]
15 | A (0.7 or more) | 230 (YCEENYLDSEQYQYFIYFK(COCH2)Y; thioether 2-19 (inferred)) [compound 230]
16 | A (0.7 or more) | 231 (YCEENYLDTEQYQYFIYFK(COCH2)Y; thioether 2-19 (inferred)) [compound 231]
17 | A (0.7 or more) | 232 (YCEENYLDDEQYQYFIYFK(COCH2)Y; thioether 2-19 (inferred)) [compound 232]
18 | A (0.7 or more) | 233 (YCEENYLDEEQYQYFIYFK(COCH2)Y; thioether 2-19 (inferred)) [compound 233]
19 | A (0.7 or more) | 234 (YCEENYLDREQYQYFIYFK(COCH2)Y; thioether 2-19 (inferred)) [compound 234]
20 | A (0.7 or more) | 235 (YCEENYLDHEQYQYFIYFK(COCH2)Y; thioether 2-19 (inferred)) [compound 235]

Row | Evaluation result of binding affinity to FGFR | Substance
21 | C (0.1 or more and less than 0.5) | 236 (YCEENYLDPGQYQYFIYFK(COCH2)Y; thioether 2-19 (inferred)) [compound 236]
22 | A (0.7 or more) | 237 (YCEENYLDPPQYQYFIYFK(COCH2)Y; thioether 2-19 (inferred)) [compound 237]
23 | A (0.7 or more) | 238 (YCEENYLDPLQYQYFIYFK(COCH2)Y; thioether 2-19 (inferred)) [compound 238]
24 | A (0.7 or more) | 239 (YCEENYLDPIQYQYFIYFK(COCH2)Y; thioether 2-19 (inferred)) [compound 239]
25 | A (0.7 or more) | 240 (YCEENYLDPVQYQYFIYFK(COCH2)Y; thioether 2-19 (inferred)) [compound 240]
26 | A (0.7 or more) | 241 (YCEENYLDPFQYQYFIYFK(COCH2)Y; thioether 2-19 (inferred)) [compound 241]
27 | A (0.7 or more) | 242 (YCEENYLDPYQYQYFIYFK(COCH2)Y; thioether 2-19 (inferred)) [compound 242]
28 | A (0.7 or more) | 243 (YCEENYLDPWQYQYFIYFK(COCH2)Y; thioether 2-19 (inferred)) [compound 243]
29 | A (0.7 or more) | 244 (YCEENYLDPNQYQYFIYFK(COCH2)Y; thioether 2-19 (inferred)) [compound 244]
30 | A (0.7 or more) | 245 (YCEENYLDPQQYQYFIYFK(COCH2)Y; thioether 2-19 (inferred)) [compound 245]
31 | A (0.7 or more) | 246 (YCEENYLDPSQYQYFIYFK(COCH2)Y; thioether 2-19 (inferred)) [compound 246]
32 | A (0.7 or more) | 247 (YCEENYLDPTQYQYFIYFK(COCH2)Y; thioether 2-19 (inferred)) [compound 247]
33 | A (0.7 or more) | 248 (YCEENYLDPDQYQYFIYFK(COCH2)Y; thioether 2-19 (inferred)) [compound 248]
34 | A (0.7 or more) | 249 (YCEENYLDPRQYQYFIYFK(COCH2)Y; thioether 2-19 (inferred)) [compound 249]
35 | A (0.7 or more) | 250 (YCEENYLDPHQYQYFIYFK(COCH2)Y; thioether 2-19 (inferred)) [compound 250]
36 | C (0.1 or more and less than 0.5) | 251 (YCEENYLDPEHYQYFIYFK(COCH2)Y; thioether 2-19 (inferred)) [compound 251]
37 | C (0.1 or more and less than 0.5) | 252 (YCEENYLDPEQLQYFIYFK(COCH2)Y; thioether 2-19 (inferred)) [compound 252]
38 | C (0.1 or more and less than 0.5) | 253 (YCEENYLDPEQIQYFIYFK(COCH2)Y; thioether 2-19 (inferred)) [compound 253]
39 | A (0.7 or more) | 254 (YCEENYLDPEQFQYFIYFK(COCH2)Y; thioether 2-19 (inferred)) [compound 254]
40 | A (0.7 or more) | 255 (YCEENYLDPEQWQYFIYFK(COCH2)Y; thioether 2-19 (inferred)) [compound 255]

Row | Evaluation result of binding affinity to FGFR | Substance
41 | A (0.7 or more) | 256 (YCEENYLDPEQHQYFIYFK(COCH2)Y; thioether 2-19 (inferred)) [compound 256]
42 | A (0.7 or more) | 257 (YCEENYLDPEQYGYFIYFK(COCH2)Y; thioether 2-19 (inferred)) [compound 257]
43 | A (0.7 or more) | 258 (YCEENYLDPEQYLYFIYFK(COCH2)Y; thioether 2-19 (inferred)) [compound 258]
44 | A (0.7 or more) | 259 (YCEENYLDPEQYIYFIYFK(COCH2)Y; thioether 2-19 (inferred)) [compound 259]
45 | A (0.7 or more) | 260 (YCEENYLDPEQYVYFIYFK(COCH2)Y; thioether 2-19) [compound 260]
46 | B (0.5 or more and less than 0.7) | 261 (YCEENYLDPEQYFYFIYFK(COCH2)Y; thioether 2-19) [compound 261]
47 | A (0.7 or more) | 262 (YCEENYLDPEQYYYFIYFK(COCH2)Y; thioether 2-19) [compound 262]
48 | A (0.7 or more) | 263 (YCEENYLDPEQYWYFIYFK(COCH2)Y; thioether 2-19) [compound 263]
49 | A (0.7 or more) | 264 (YCEENYLDPEQYNYFIYFK(COCH2)Y; thioether 2-19) [compound 264]
50 | A (0.7 or more) | 265 (YCEENYLDPEQYSYFIYFK(COCH2)Y; thioether 2-19) [compound 265]
51 | A (0.7 or more) | 266 (YCEENYLDPEQYTYFIYFK(COCH2)Y; thioether 2-19) [compound 266]
52 | A (0.7 or more) | 267 (YCEENYLDPEQYDYFIYFK(COCH2)Y; thioether 2-19) [compound 267]
53 | A (0.7 or more) | 268 (YCEENYLDPEQYEYFIYFK(COCH2)Y; thioether 2-19) [compound 268]
54 | A (0.7 or more) | 269 (YCEENYLDPEQYRYFIYFK(COCH2)Y; thioether 2-19) [compound 269]
55 | A (0.7 or more) | 270 (YCEENYLDPEQYHYFIYFK(COCH2)Y; thioether 2-19) [compound 270]
56 | C (0.1 or more and less than 0.5) | 271 (YCEENYLDPEQYQIFIYFK(COCH2)Y; thioether 2-19) [compound 271]
57 | A (0.7 or more) | 272 (YCEENYLDPEQYQFFIYFK(COCH2)Y; thioether 2-19) [compound 272]
58 | C (0.1 or more and less than 0.5) | 273 (YCEENYLDPEQYQNFIYFK(COCH2)Y; thioether 2-19) [compound 273]
59 | C (0.1 or more and less than 0.5) | 274 (YCEENYLDPEQYQHFIYFK(COCH2)Y; thioether 2-19) [compound 274]
60 | A (0.7 or more) | 275 (YCEENYLDPEQYQYLIYFK(COCH2)Y; thioether 2-19) [compound 275]
